Target: GFP-tagged SARS-CoV N protein, full length (SARS-CoV, UniProt P59595 1-422)
Assay: co-immunoprecipitation on Flag-tagged MASP-2 region beads, anti-GFP immunoblot

Chain of GFP-tagged SARS-CoV N protein, full length (P59595 whole entry): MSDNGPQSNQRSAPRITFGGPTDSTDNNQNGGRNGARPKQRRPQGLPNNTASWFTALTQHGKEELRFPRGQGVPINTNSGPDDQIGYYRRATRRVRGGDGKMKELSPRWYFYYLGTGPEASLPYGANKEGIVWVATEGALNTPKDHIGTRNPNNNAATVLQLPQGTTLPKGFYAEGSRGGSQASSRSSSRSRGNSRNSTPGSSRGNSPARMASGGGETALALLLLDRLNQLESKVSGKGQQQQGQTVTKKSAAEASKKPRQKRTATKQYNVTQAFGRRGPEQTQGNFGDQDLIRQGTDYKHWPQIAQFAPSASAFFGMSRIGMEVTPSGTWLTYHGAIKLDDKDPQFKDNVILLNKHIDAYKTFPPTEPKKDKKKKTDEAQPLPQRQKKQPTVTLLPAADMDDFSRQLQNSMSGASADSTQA

B1: Flag-tagged MASP-2 N-terminal CUB1-EGF-CUB2 region (other, UniProt O00187 16-296, looked up, not shown: small tags and cut ends)
chain: TPLGPKWPEPVFGRLASPGFPGEYANDQERRWTLTAPPGYRLRLYFTHFDLELSHLCEYDFVKLSSGAKVLATLCGQESTDTERAPGKDTFYSLGSSLDITFRSDYSNEKPFTGFEAFYAAEDIDECQVAPGEAPTCDHHCHNHLGGFYCSCRAGYVLHRNKRTCSALCSGQVFTQRSGELSSPEYPRPYPKLSSCTYSISLEEGFSVILDFVESFDVETHPETLCPYDFLKIQTDREEHGPFCGKTLPHRIETKSNTVTITFVTDESGDHTGWKIHYTST
notes: domain: CUB1-EGF-CUB2
  binding result: no binding
